Assay results as given in the DeepSol protein solubility set.

Test: soluble on expression in E. coli; label from the status in PepcDB or PDB records

| Sequence | soluble on expression in E. coli |
| --- | --- |
| MVVFEITILGANGGPTEYGTQCFILKPARTEDPELIAVDGGAGMYQLREMLVQGRNENEGDDELVPSFYEHDREPIEFFIDSKLNIQKGLSKSLLQSLKRQGEHFESANTMKKTYEVFQGITDYYITHPHLDHISGLVVNSPSIYEQENSKKKTIWGLPHTIDVLQKHVFNDLIWPDLTAERSRKLKLKCLNPKEVQKCTIFPWDVIPFKVHHGIGVKTGAPVYSTFYIFRDRKSKDCIIVCGDVEQDRRESEESLLEEFWSYVAENIPLVHLKGILVECSCPLSSKPEQLYGHLSPIYLINELSNLNTLYNSSKGLSGLNVIVTHVKSTPAKRDPRLTILEELRFLAEERNLGDLRISIALEGHTLFL | not soluble |
| MVVNYPRAYTAEQSRPINLVGKQGQAVQISIHYPSQYICANRERILPDWQEQALFWVVIVLQQSKYPLVKSTAEIEREKEHLREKFMRFGCDLAFELRDRGYLADLIDPRTGYPMLSRPGVIPHNDTAVVKALLNYPVLKNKCSVIVHPHWGTAVYPSIFLSAALEHHHHHH | not soluble |
| MVVQVQPVEVDVESLVTRVFLKAIDLLGGLHKLAEYRTLTWLPSLARAAFVIVYREEFLKTEEEIAELVGLTRQTVRNILRADPELALYKIQHIDELTKEEKKELRVHTAGGIAKLAYKKVKEGEEPKVFLEFCTMAAEALEVPWAYLLLKKIKGTHFPINSPEELKEKVKGVVIKGMPAEEVVEKIEYPVKNPADLLHKIKIHLKMMGVE | soluble |
| MVYNENTPHFYNKSGKETFMSNILFSVFPNENFIDMSLYQFGWEQCQPSHSYGPAARNHYLFHYVISGTGTLMADDTSGITQTYSVKSGQGFMIFPQQITTYIADQKLPWEYVWIEFDGLRVKEILELAGLTKSAPIYHAHSKEMREVLKEEMLYIARNPEQPPFHLIGHLYLFMDALTRSCTREQTNSAGRLRDFYIHEAIAFIEQNFQNDISVEDIAEVCGLNRSYFGKIFKETLGRSPQEFLMNYRMVKATELLKLTQLSISEISNAVGYANPLHFSRAFKNVYGESPRIWRQNHRT | not soluble |
| MVYTVDFKEVATIGLESSPVAPALAGLRANEARYFWNKYKHRFTTVPASEAPETLAWIEKILLERELHFPYKPLEISSFTLDGIKMAYVFYENGLAVNVMYTLAEEGKRAVGFKLSDGMAIPAEFEGKFKFARQKSKLAGTIRGSYFVIKGTY | soluble |
| MVYVAVLANIAGNLPALTAALSRIEEMREEGYEIEKYYILGNIVGLFPYPKEVIEVIKDLTKKENVKIIRGKYDQIIAMSDPHATDPGYIDKLELPGHVKKALKFTWEKLGHEGREYLRDLPIYLVDKIGGNEVFGVYGSPINPFDGEVLAEQPTSYYEAIMRPVKDYEMLIVASPMYPVDAMTRYGRVVCPGSVGFPPGKEHKATFALVDVDTLKPKFIEVEYDKKIIEERIRAEGLPEEIIKILYHGGRP | soluble |
| MWCLPLSSGNDAHMTTHIQRSALLPYPAGFLYDLVNDVARYPEFLPWCSSATVLDASESQMRASLEIAKGGLSQKFMTRNTLVPGESIVMDLVEGPFEQFHGVWTFKPLGEKACKISLDLSFDYAGTIVRATLGPLFNQAANTLVDAFCQRAKELHGLEHHHHHH | not soluble |
| MWDKSLVFTFFRRRFGMALSTFKREHIKKNLRNDEYDLVIIGGGITGAGIALDASERGMKVALVEMQDFAQGTSSRSTKLVHGGLRYLKQFQIGVVAETGKERAIVYENGPHVTTPEWMLLPMHKGGTFGKFSTSIGLGMYDRLAGVKKSERKKMLSKKETLAKEPLVKKEGLKGGGYYVEYRTDDARLTIEVMKRAAEKGAEIINYTKSEHFTYDKNQQVNGVKVIDKLTNENYTIKAKKVVNAAGPWVDDVRSGDYARNNKKLRLTKGVHVVIDQSKFPLGQAVYFDTEKDGRMIFAIPREGKAYVGTTDTFYDNIKSSPLTTQEDRDYLIDAINYMFPSVNVTDEDIESTWAGIRPLIYEEGKDPSEISRKDEIWEGKSGLLTIAGGKLTGYRHMAQDIVDLVSKRLKKDYGLTFSPCNTKGLAISGGDVGGSKNFDAFVEQKVDVAKGFGIDEDVARRLASKYGSNVDELFNIAQTSQYHDSKLPLEIYVELVYSIQQEMVYKPNDFLVRRSGKMYFNIKDVLDYKDAVIDIMADMLDYSPAQIEAYTEEVEQAIKEAQHGNNQPAVKELEHHHHHH | soluble |
| MWIVFDVDGVLIDTSESYDMATKLTVEYFLSHLGIKKEVSLEIIRDMRKKGVFSDDFELSEALILMYLSGEDLPKGEGVEYLRQKLGIVLDRKDIERVFNTFYLGEIYPNSIFKFEGLWRKEKRIVDIELLKKAKETYKLGIVTGRDSLEMKLAEEIIRFKFDKVVTRDMFEKPDPRALYEVTQGEEAIYIGDSKVDEELVERYRRTFKGNVTYLMVGRDVNDVNEALKKILFQSYIRLEHHHHHH | soluble |
| MWKISKENCEDLGFAIVCMFYDAINLSEFKLWLDIVVRDIPIDTIPLYIFDLIDFDKSIGEIYDVIGVVNYGYISNDQKNALTGIAFLRGIDVYDPPISKEKALKALEKYPEIYQRFQHFFPFVELPLF | not soluble |
| MWQNFYLTTLKLSQYTQEEKPILPADNMDPRALASVHAWEHGDFMCKGYIQSRLSDPLYNVYSNVETSNELWDSLDKKYQTKDAGSQKYAAAKFLDYKMVDSRPMMVQVEELTCLFHDI | soluble |
| MWYQKTLTLSAKSRGFHLVTDEILNQLADMPRVNIGLLHLLLQHTSASLTLNENCDPTVRHDMERFFLRTVPDNGNYEHDYEGADDMPSHIKSSMLGTSLVLPVHKGRIQTGTWQGIWLGEHRIHGGSRRIIATLQGELEHHHHHH | soluble |
| MYAFVRFLEDNVCYALPVSCVRDFSPRSRLDFDNQKVYAVYRGPEELGAGPESPPRAPRDWGALLLHKAQILALAEDKSDLENSVMQKKIKIPKLSLNHVEEDGEVKDYGEEDLQLRHIKRPEGRKPSEVAHKSIEAVVARLEKQNGLSLGHSTCPEEVFVEASPGTEDMDSLEDAVVPRALYEELLRNYQQQQEEMRHLQQELERTRRQLVQQAKKLKEYGALVSEMKELRDLNRRLQDVLLLRLGSGPAIDLEKVKSECLEPEPELRSTFSEEANTSSYYPAPAPVMDKYILDNGKVHLGSGIWVDEEKWHQLQVTQGDSKYTKNLAVMIWGTDVLKNRSVTGVATKKKKDAVPKPPLSPHKLSIVRECLYDRIAQETVDETEIAQRLSKVNKYICEKIMDINKSCKNEERREAKYNLQ | soluble |
| MYATFSALKKYGYAELSIQRIASELNFSKSTLYHHFSDKDDLLLSFFNFLLDELEQFCKSSSTNEPKKELLDFVDVLLDEGITQKEQSAKGEILAAYIELRSQAIHDTKYRERITRTDKRFVKQIAVIIDAGIDKGVFQPVEPEETAEFILAILNGILMQGSTRKRAPFQQLRQNLIEYIQTELFVESATRS | not soluble |
| MYDTEIPYEGKISIYTYFCKECGYRKTEVYSDEKRDPKKITIRIENPDDLRIIVYRSRRADVYIPEMEASIDSAEYSNGEITTIEGIIYRIGEKLDLLAADDQNNKKIASLRKRIDGIINGKFESFTLIIMDESGKSVVHS | not soluble |
| MYDTPIFRSEFKVISHELIHALPKVILGESGDAAYMQSRVQQLADDHVAYFECTVPHEDIERAISVAEQAPFTVGILERIDDSSHYTDRSRTPVVVGFSTQSADVAAILRENYVPFEFDGSVADQVRVGASRIIHGIGLFEDFRFEDDDIVPGRLSAWVRDRDYPVLVEPFADLENGEVAELADHPLPLMSKLGYRTASSILSTDRLLELTEYLELQIEDLFELTRDAVAVSLLPQPLRVQLWEELVFPFFEQLGEDFADHSTTDDAESTTELRSEREHAGHAHTDHHGGAAGLEGVDPQFLDEMGIEFDDLDL | not soluble |
| MYDVLDSQSVLEVLRPVQDPELRKSLVELNMIRNVKIDGGQVSFTLVLTTPACPLREFIVEDCQRAVKKLPGVTDVSVEVTAETPQQKSLPDRNGVPGVKNIIAISSGKGGVGKSTVAVNVAVALAQTGAKVGLLDADIYGPNDPTMLGLGDAQIVVRSTEKGEVLEPAFNHGVKLVSMGFLIDRDQPVIWRGPMLNGVIRQFLYQVEWGELDYLIVDMPPGTGDAQLTLTQAVPMSGAVIVTTPQNVALLDSRKGLRMFQQMNVAVLGIVENMSYFIPPDMPDKHYDIFGSGGGSKTAAELGVPLLGCIPLEISTRIGGDNGVPIVVADPDSASAKALKAIALTIAGKVSVAALTLEHHHHHH | soluble |
| MYEGLLIDIDYLLNVVKELKINFDKKIKTLNLLIERNIPIVLYTENNKEYVDTIMKYLKIKEPAIIVEGAQIYSPFDLSYEAVFPLSINTVCKLGNWAMDRKMDMSISTDKKVIDYSEWLKELRQVNYKNAGDKLPSAVKVDICMKNDDKRIELLNFIGKNNLECYAHMYLNHVACINSIVDKGNTLKYLANKKKWDIKKFAMIGDYSKDTSIFDEVGF | not soluble |
| MYGAVVVAGDHQRGAGVGMLRTRKLAQVAEINVVKSLDYLRLWHPILQNLRGRDFPTIELLLLRWRPARSAPPLSPPRTQDFENPWSPKSHRTALPWVFVFLSSRSRDRGPKNPTRAQWVPMNR | not soluble |
| MYIDKDDFTAWMERIMDRFDMQDKKIDRVIKGRNCLDGEELLDNQDLCLLLKVAPRTLTRYRKKGILPFLMLDGRCYYRATDVHKLIREKTD | not soluble |
| MYIKNSERLKFRLMDSKDAQELWEIDQDPTVMKFLNGGNPTSIEQVNSVFIPRMNKYRNSELGWGIWQVSNKVTDEYLGWVLIRPMSFFTESPNTKDLELGWRFFQSTWGKGYATEAAIAIRDAVVANTDVTHVSALAVADNLASVGVMKKMGMHFVRAYLHEDPIGDFDAVHYQMSVRNK | not soluble |
| MYILVENAVTSKQLVTGVRTEPHYRYAGYYLKAYEIVANQERDKTKYESLEPAIKALFTLDSEHEKKVRTQLENLKLLTKFKFTGIYTESVDRYNKAVVLQDKGKTEDAETATTNAQT | not soluble |
| MYIPKHFAVNDPDVAYQVIEENSFATLVSMHQRELFATHLPLLLDREKTCLYGHFARSNPQWNDIQHQTVLAIFHGPHCYISPSWYETNQAVPTWNYVAVHVYGNVELINDQGEVMQSLHDMVEKYEAPGSRYQLSEVDAGMLSGMNKGIQAFKIIIKRIEGKAKLSQNHPAHRQERIIKQLEQMPFENEKRIASLMKKQRQ | soluble |
| MYKGYLIDLDGTMYRGEEQIEEASDFVKALGERGIPYLFVTNNSTRKPEQVAEKLVRFDIPAKAEQVFTTSMATANFIYERKQDATVYMIGEEGLHDALVEKGFELVDENPDFVVVGLDRDITYEKLAKACLAVRNGATFISTNGDIAIPTERGLLPGNGSLTSVVAVSTGVDPIFIGKPESIIMEQALKVLGIEKNEALMVGDNYDTDILAGINAGMHTLLVHTGVTTVEKLTEYEVQPTQVVHNLTEWIEKM | not soluble |
| MYKVSIICTNYNKAPWISDALDSFLSQVTDFEVEIIVIDDASTDDSREILKSYQKKSSGKIKLLFNETNIGITKTWIKACLYAKGKYIARCDGDDYWTDSFKLQKQVDVLEASKRSRWCNTDFDFVNSQGDLLYANAFSSGHTPLTDTYEKVLALKGMTMASTWLVDADLMRQVNQKINVDTPDDTFDIQLELFQLTQLTYIKDSTTIYRMTTDSDSRPTDTPKMIYRIQKLLDTQLNYLKKYNQVDTKEVSELLLQQDAKQEIRIHELSCFIQELQQTIVDKTKQQETREVELQNVIEEQKNQLSELRQQYHAIINSRQWKYTSKLIAFIRRKK | not soluble |
